# In PMC4963926 (Journal of Translational Medicine, 2016):
# B1: HPV11 His6-E6 protein (natural protein)
# chain: MESKDASTSATSIDQLCKTFNLSLHTLQIQCVFCRNALTTAEIYAYAYKNLKVVWRDNFPFAACACCLELQGKINQYRHFNYAAYAPTVEEETNEDILKVLIRCYLCHKPLCEIEKLKHILGKARFIKLNNQWKGRCLHCWTTCMEDLLP
# B2: HPV16 His6-E6 protein (natural protein)
# chain: MHQKRTAMFQDPQERPRKLPQLCTELQTTIHDIILECVYCKQQLLRREVYDFAFRDLCIVYRDGNPYAVCDKCLKFYSKISEYRHYCYSLYGTTLEQQYNKPLCDLLIRCINCQKPLCPEEKQRHLDKKQRFHNIRGRWTGRCMSCCRSSRTRRETQL
# notes: also called HR-HPV16 His6-E6; HPV16 E6
# Target: the molecule itself
# Assay: SDS-PAGE and immunoblotting of the purified protein
row,Protein,binding result
1,B1,binds
2,B2,binds
